Laboratory results reported in patent CN112794907A (ANHUI ANKE BIOTECHNOLOGY GROUP CO LTD, dated 2021).

T1: rhOX40-Avi-His-bio (human, UniProt P43489 29-214, biotin joined covalently to the Avi tag by BirA)
T1 construct: range 29-214; Biotinylated form of rhOX40-Avi-His, captured on the SA chip for SPR; also called 生物素标记的抗原rhOX40-Avi-His-bio; huOX40; not shown: Avi tag and His tag from the vector pCD-Avi-His
T1 sequence (looked up): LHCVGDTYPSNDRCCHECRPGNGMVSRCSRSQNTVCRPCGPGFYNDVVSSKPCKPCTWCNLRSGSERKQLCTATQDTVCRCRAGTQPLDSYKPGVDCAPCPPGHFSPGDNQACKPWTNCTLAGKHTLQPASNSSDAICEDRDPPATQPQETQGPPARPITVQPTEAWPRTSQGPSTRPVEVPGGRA


How the values were obtained:
rhOX40-Avi-His-bio [1] = target: T1, rhOX40-Avi-His-bio; assay: SPR
rhOX40-Avi-His-bio [2] = target: T1, rhOX40-Avi-His-bio; assay: SPR, Biacore T200, rhOX40-Avi-His-bio on SA chip, antibody as analyte

fold increase of affinity over B11 (rhOX40-Avi-His-bio [1])	Kd (rhOX40-Avi-His-bio [2]) [pM]	fold increase of affinity over A2 (rhOX40-Avi-His-bio [1])	Binder
~650 倍	~776		全人源抗huOX40单克隆抗体B11-11 (antibody, IgG1, V domains shown) VH: DVQLQESGPGLVKPSETLSLTCTVSGGSISADGFIWGWIRQPPGKGLEWIGGITTNGGYTDYNPSLKSRVTISVDTSKNQFSLKLSSVTAADTSVYYCARWFWDVSYGFDTWGQGTLVTVSS VL: DIVMTQSPLSLPVTPGEPASISCRSSQSVDSDEYSFMHWYLQKPGQAPQLLIYRTDQRASGVPTRFSGSGSGTDFTLKISRVEAEDVGVYYCQQTPTYTFGQGTKLEIKR
	~200	~540 倍	全人源抗huOX40单克隆抗体A2-1 (antibody, IgG1, V domains shown) VH: DVQLQESGPGLVKPSETLSLTCTVSGDSVSDSGAYWVWIRQPPGKGLEWIGTIAPARGDTLYNPSLKSRVTISVDTSKNQFSLKLSSVTAADTSVYYCARDVWYIDYWGQGTLVTVSS VL: DIVLTQSPATLSLSPGERATLSCRASEDIGTWLAWYQQKPGQAPRLLIYHTDLRATGVPTRFSGSGSGTDFTLTISSLEPEDFAVYYCQQYASYPLTFGQGTKLEIK
